Measurements: US20240279304A1, “DSG2 COMPOSITIONS AND METHODS” (Arvada Therapeutics, Inc., priority 2021, published 2024)

Experiments:
[1] = Dynamic light scattering (DLS) of DSG2 fusion polypeptides; type: physicochemical; conditions: average polymer distribution index
Description: 6 candidates were compared to the reference sample.

[2] = test system: anti-DSG2 antibody; assay: anti-DSG2 antibody meso scale discovery (MSD) assay, blocking of anti-DSG2 antibody; type: binding; conditions: for % inhibition: fraction C (table title)
Method: (§1) The DSG2 fusion polypeptides were tested for the ability to block anti-DSG2 antibody by an anti-DSG2 antibody meso scale discovery (MSD) assay. […] The DSG2 fusion polypeptides were subjected to size exclusion chromatography and different elution fractions were examined. […] As shown in Table 7 and FIG. 1B, FIG. 1C, and FIG. 1D, enriching for fraction C improved the ability of the DSG2 fusion polypeptides to block ARVC patient serum.

[3] = target: anti-DSG2 antibody; assay: electrochemical immunoassay; fusion polypeptide at 5 mg/mL (so in the source), antibody at 500 ng/mL
[4] = target: anti-DSG2 antibody; assay: anti-DSG2 antibody MSD assay; inhibition by the fusion polypeptide (fraction C per table title); antibody at 200 ng/mL
[5] = target: anti-DSG2 antibody; assay: anti-DSG2 antibody MSD assay; inhibition by the fusion polypeptide (fraction C per table title); antibody at 1000 ng/mL
[6] = test system: ARVC serum (anti-DSG2 antibodies in serum obtained from ARVC patients); assay: anti-DSG2 antibody MSD assay, blocking of ARVC patient serum; type: binding, human; design: % inhibition: concentration or dose not given beside the values; conditions: for effect of enriching for fraction C on ability to block ARVC patient serum (in words): fraction C vs whole preparation, FIG. 1B-1D; for % inhibition: fraction C (table title)
Method: as §1
ARVC diagnosis is based on complex tool known as Task Force Criteria, which can lead to varying levels of conviction about ARVC diagnosis. The utility of DSG2 antibodies as an indicator of ARVC disease state and severity was explored. Approximately 50 cc serum was collected from diagnosed ARVC patients. A total of 10 ARVC patients and 5 healthy controls were used for the analysis. ARVC serum samples were separated into more robust diagnosis and less robust diagnosis, based on available data in the patient medical records and anti-DSG2 antibody levels were compared using an anti-DSG2 antibody meso scale discovery (MSD)-based assay.

[7] = sample: Anti-DSG2 antibody (200 ng/mL) control
[8] = sample: Anti-DSG2 antibody (1000 ng/mL) control

With “DSG2FP#7: DSG2 extracellular domain (50-609 of SEQ ID NO: 1); GGGGS peptide linker; IgG4 Fc domain” the PDI [1] was 0.30 and the “ability to bind to and block anti-DSG2 antibody (in words)” value (“ability to bind” below) [2] was “able to bind to and block anti-DSG2 antibodies”.

DSG2-(IgG4)Fc (DSG2FP#6) (Fc fusion) gave a % inhibition [3] of over 80%.

Work on “DSG2-GGGGS-(IgG4)Fc (DSG2FP#7) (Fc fusion)” yielded a % inhibition [3] of over 80%.

With “DSG2-EAAAK-(IgG1)Fc (DSG2FP#4) (Fc fusion)” the % inhibition [4] was 61.2% and the % inhibition [5] was 85.5%.

Work on DSG2-(IgG1)Fc (DSG2FP#2) (Fc fusion) yielded a % inhibition [4] of 54.5% and a % inhibition [5] of 81.6%.

Work on “DSG2-GGGGS-(IgG1)Fc (DSG2FP#3) (Fc fusion)” yielded a % inhibition [4] of 61.2% and a % inhibition [5] of 85.5%.

With “DSG2FP#5: IgG1 Fc 104-330 (L234A, L235A, P329G; SEQ ID NO: 31); DSG2 extracellular domain (50-609 of SEQ ID NO: 1)” the PDI [1] was 0.31 and the “ability to bind” value [2] was “able to bind to and block anti-DSG2 antibodies”.

For “DSG2FP#6: DSG2 extracellular domain (50-609 of SEQ ID NO: 1); IgG4 Fc 99-327 (S228P, L235E, P329G) SEQ ID NO: 32”, the PDI [1] was 0.32 and the “ability to bind” value [2] was “able to bind to and block anti-DSG2 antibodies”.

B1: DSG2FP#2: DSG2 extracellular domain (50-609 of SEQ ID NO: 1); IgG1 Fc 104-330 (L234A, L235A, P329G) SEQ ID NO: 31 (protein)
chain: AWITAPVALREGEDLSKKNPIAKIHSDLAEERGLKITYKYTGKGITEPPFGIFVFNKDTGELNVTSILDREETPFFLLTGYALDARGNNVEKPLELRIKVLDINDNEPVFTQDVFVGSVEELSAAHTLVMKINATDADEPNTLNSKISYRIVSLEPAYPPVFYLNKDTGEIYTTSVTLDREEHSSYTLTVEARDGNGEVTDKPVKQAQVQIRILDVNDNIPVVENKVLEGMVEENQVNVEVTRIKVFDADEIGSDNWLANFTFASGNEGGYFHIETDAQTNEGIVTLIKEVDYEEMKNLDFSVIVANKAAFHKSIRSKYKPTPIPIKVKVKNVKEGIHFKSSVISIYVSESMDRSSKGQIIGNFQAFDEDTGLPAHARYVKLEDRDNWISVDSVTSEIKLAKLPDFESRYVQNGTYTVKIVAISEDYPRKTITGTVLINVEDINDNCPTLIEPVQTICHDAEYVNVTAEDLDGHPNSGPFSFSVIDKPPGMAEKWKIARQESTSVLLQQSEKKLGRSEIQFLISDNQGFSCPEKQVLTLTVCECLHGSGCREAQHDSYVGDKTHTCPPCPAPEAAGGPSVFLFPPKPKDTLMISRTPEVTCVVVDVSHEDPEVKFNWYVDGVEVHNAKTKPREEQYNSTYRVVSVLTVLHQDWLNGKEYKCKVSNKALGAPIEKTISKAKGQPREPQVYTLPPSRDELTKNQVSLTCLVKGFYPSDIAVEWESNGQPENNYKTTPPVLDSDGSFFLYSKLTVDKSRWQQGNVFSCSVMHEALHNHYTQKSLSLSPGK
In the case of B1, the PDI [1] is reported as 0.32, the “ability to bind” value [2] is reported as “able to bind to and block anti-DSG2 antibodies” and the “% inhibition” value [2, 7] is reported as 54.5%. The “% inhibition” value [2, 8] was 81.6%, the “% inhibition” value ([2]; sample: no antibody control) was −19.1% and the “effect of enriching for fraction C on ability to block ARVC patient serum (in words)” value [6] was “more pronounced”. For the same molecule, the “% inhibition” value ([6]; sample: ARVC serum 1) was 3.0%, the “% inhibition” value ([6]; sample: ARVC serum 2) was 33.5% and the “% inhibition” value ([6]; sample: ARVC serum 3) was 26.0%. For the same molecule, the “% inhibition” value ([6]; sample: ARVC serum 4) was 51.1% and the “% inhibition” value ([6]; sample: ARVC serum 5) was 41.8%.

B2: DSG2FP#4: DSG2 extracellular domain (50-609); linker EAAAK; IgG1 Fc 104-330 (L234A, L235A, P329G) SEQ ID NO: 31 (protein)
chain: AWITAPVALREGEDLSKKNPIAKIHSDLAEERGLKITYKYTGKGITEPPFGIFVFNKDTGELNVTSILDREETPFFLLTGYALDARGNNVEKPLELRIKVLDINDNEPVFTQDVFVGSVEELSAAHTLVMKINATDADEPNTLNSKISYRIVSLEPAYPPVFYLNKDTGEIYTTSVTLDREEHSSYTLTVEARDGNGEVTDKPVKQAQVQIRILDVNDNIPVVENKVLEGMVEENQVNVEVTRIKVFDADEIGSDNWLANFTFASGNEGGYFHIETDAQTNEGIVTLIKEVDYEEMKNLDFSVIVANKAAFHKSIRSKYKPTPIPIKVKVKNVKEGIHFKSSVISIYVSESMDRSSKGQIIGNFQAFDEDTGLPAHARYVKLEDRDNWISVDSVTSEIKLAKLPDFESRYVQNGTYTVKIVAISEDYPRKTITGTVLINVEDINDNCPTLIEPVQTICHDAEYVNVTAEDLDGHPNSGPFSFSVIDKPPGMAEKWKIARQESTSVLLQQSEKKLGRSEIQFLISDNQGFSCPEKQVLTLTVCECLHGSGCREAQHDSYVGEAAAKDKTHTCPPCPAPEAAGGPSVFLFPPKPKDTLMISRTPEVTCVVVDVSHEDPEVKFNWYVDGVEVHNAKTKPREEQYNSTYRVVSVLTVLHQDWLNGKEYKCKVSNKALGAPIEKTISKAKGQPREPQVYTLPPSRDELTKNQVSLTCLVKGFYPSDIAVEWESNGQPENNYKTTPPVLDSDGSFFLYSKLTVDKSRWQQGNVFSCSVMHEALHNHYTQKSLSLSPGK
With B2 the PDI [1] was 0.32, the “ability to bind” value [2] was “able to bind to and block anti-DSG2 antibodies” and the “% inhibition” value [2, 7] was 61.2%. The “% inhibition” value [2, 8] was 85.5%, the “% inhibition” value ([2]; sample: no antibody control) was 0.7% and the “% inhibition” value ([6]; sample: ARVC serum 1) was 6.0%. For the same molecule, the “% inhibition” value ([6]; sample: ARVC serum 2) was 9.2%, the “% inhibition” value ([6]; sample: ARVC serum 3) was −8.0% and the “% inhibition” value ([6]; sample: ARVC serum 4) was 0.8%. For the same molecule, the “% inhibition” value ([6]; sample: ARVC serum 5) was 2.0%.

B3: DSG2FP#3: DSG2 extracellular domain (50-609); linker GGGGS; IgG1 Fc 104-330 (L234A, L235A, P329G) SEQ ID NO: 31 (protein)
chain: AWITAPVALREGEDLSKKNPIAKIHSDLAEERGLKITYKYTGKGITEPPFGIFVFNKDTGELNVTSILDREETPFFLLTGYALDARGNNVEKPLELRIKVLDINDNEPVFTQDVFVGSVEELSAAHTLVMKINATDADEPNTLNSKISYRIVSLEPAYPPVFYLNKDTGEIYTTSVTLDREEHSSYTLTVEARDGNGEVTDKPVKQAQVQIRILDVNDNIPVVENKVLEGMVEENQVNVEVTRIKVFDADEIGSDNWLANFTFASGNEGGYFHIETDAQTNEGIVTLIKEVDYEEMKNLDFSVIVANKAAFHKSIRSKYKPTPIPIKVKVKNVKEGIHFKSSVISIYVSESMDRSSKGQIIGNFQAFDEDTGLPAHARYVKLEDRDNWISVDSVTSEIKLAKLPDFESRYVQNGTYTVKIVAISEDYPRKTITGTVLINVEDINDNCPTLIEPVQTICHDAEYVNVTAEDLDGHPNSGPFSFSVIDKPPGMAEKWKIARQESTSVLLQQSEKKLGRSEIQFLISDNQGFSCPEKQVLTLTVCECLHGSGCREAQHDSYVGGGGGGSDKTHTCPPCPAPEAAGGPSVFLFPPKPKDTLMISRTPEVTCVVVDVSHEDPEVKFNWYVDGVEVHNAKTKPREEQYNSTYRVVSVLTVLHQDWLNGKEYKCKVSNKALGAPIEKTISKAKGQPREPQVYTLPPSRDELTKNQVSLTCLVKGFYPSDIAVEWESNGQPENNYKTTPPVLDSDGSFFLYSKLTVDKSRWQQGNVFSCSVMHEALHNHYTQKSLSLSPGK
For B3, the PDI [1] was 0.30, the “ability to bind” value [2] was “able to bind to and block anti-DSG2 antibodies” and the “% inhibition” value [2, 7] was 61.2%. For the same molecule, the “% inhibition” value [2, 8] was 85.5%, the “% inhibition” value ([2]; sample: no antibody control) was 0.7% and the “effect of enriching for fraction C on ability to block ARVC patient serum (in words)” value [6] was “more pronounced”. For the same molecule, the “% inhibition” value ([6]; sample: ARVC serum 1) was 9.2%, the “% inhibition” value ([6]; sample: ARVC serum 2) was 27.6% and the “% inhibition” value ([6]; sample: ARVC serum 3) was 15.5%. The “% inhibition” value ([6]; sample: ARVC serum 4) was −5.6% and the “% inhibition” value ([6]; sample: ARVC serum 5) was 20.6%.
